Here are results for 17 molecules from PMC3466378 (Journal of immunology (Baltimore, Md. : 1950), 2012).

Ends that are not written are not given here.

In general, IC50 refers to the concentration needed to halve the response being measured.

One experiment has as its target HLA-DR1 (Homo sapiens, UniProt P01903+P01911, A100R/D57E/F55L/F60I/F76Y/I96L/L162R/M171V/P40L/Q125E/R42F/V115G/Y59C). In words: biochemical. The class given is binding.
Experiment [1] deals with Soluble recombinant HLA-DR1 (HLA DRB1*0101) (human). In words: fluorescence polarisation.
The target is the same in experiment [2]. As to the kind of experiment: ELISA. For orientation: An ELISA detects its analyte on a solid surface through an enzyme-linked reagent.

On HLA-DR1, `CC[C@H](C)[C@H](NC(=O)[C@H](CCCNC(=N)N)NC(=O)[C@H](CC(=O)O)NC(=O)[C@@H](NC(=O)[C@H](CCCCN)NC(=O)[C@@H](NC(=O)[C@H](CO)NC(=O)[C@H](CCC(=O)O)NC(=O)[C@@H](NC(=O)[C@H](Cc1ccc(O)cc1)NC(=O)[C@H](CCSC)NC(=O)[C@H](Cc1ccccc1)NC(=O)[C@H](CO)NC(=O)[C@H](Cc1ccccc1)NC(=O)[C@@H](N)CCCCN)[C@@H](C)CC)[C@@H](C)CC)C(C)C)C(=O)O` [A20R (214–228)] showed an IC50 of 192 nM.

As to `CC[C@H](C)[C@H](NC(=O)[C@H](Cc1ccccc1)NC(=O)[C@H](CC(C)C)NC(=O)[C@H](CC(C)C)NC(=O)[C@H](CO)NC(=O)[C@@H](NC(=O)[C@H](C)N)C(C)C)C(=O)N[C@@H](CCC(N)=O)C(=O)NCC(=O)N[C@@H](Cc1ccc(O)cc1)C(=O)N[C@@H](CO)C(=O)N[C@H](C(=O)N[C@@H](Cc1ccc(O)cc1)C(=O)N[C@@H](CCC(=O)O)C(=O)N[C@@H](CC(N)=O)C(=O)O)[C@@H](C)CC` [A28Ls (15–29)], the IC50 on HLA-DR1 was determined as 212 nM.

On HLA-DR1, `CC[C@H](C)[C@H](NC(=O)CNC(=O)[C@H](CO)NC(=O)[C@H](CCC(N)=O)NC(=O)[C@H](CC(N)=O)NC(=O)[C@@H](NC(=O)[C@H](Cc1ccccc1)NC(=O)[C@@H]1CCCN1C(=O)[C@@H](N)CCC(=O)O)C(C)C)C(=O)N[C@@H](CCC(=O)O)C(=O)N[C@H](C(=O)N[C@@H](CC(C)C)C(=O)N[C@@H](CC(C)C)C(=O)O)[C@@H](C)CC` [D11L (386–398)] yielded an IC50 of 106 nM.

Molecule `CC[C@H](C)[C@H](NC(=O)[C@H](CO)NC(=O)[C@H](CC(N)=O)NC(=O)[C@H](Cc1ccccc1)NC(=O)[C@@H](NC(=O)[C@@H](N)CC(C)C)C(C)C)C(=O)N[C@@H](CO)C(=O)N[C@@H](C)C(=O)N[C@@H](CCCNC(=N)N)C(=O)N[C@@H](C)C(=O)N[C@@H](CC(C)C)C(=O)N[C@@H](CCCCN)C(=O)N[C@@H](C)C(=O)N[C@@H](Cc1ccc(O)cc1)C(=O)N[C@@H](Cc1ccccc1)C(=O)O` [I1L (8–22)] came in with an IC50 against HLA-DR1 of 15 nM.

Consider `CC[C@H](C)[C@H](NC(=O)[C@H](C)NC(=O)[C@H](CC(C)C)NC(=O)[C@H](CO)NC(=O)[C@H](CC(N)=O)NC(=O)[C@H](CC(C)C)NC(=O)[C@H](Cc1ccccc1)NC(=O)[C@H](CCCNC(=N)N)NC(=O)[C@H](CCSC)NC(=O)[C@H](CC(=O)O)NC(=O)[C@@H](N)Cc1ccccc1)C(=O)N[C@@H](Cc1c[nH]cn1)C(=O)N[C@@H](CCC(=O)O)C(=O)O` [I7L (193–205)], for which the midpoint of inhibition against HLA-DR1, the IC50, lay at 150 nM.

Turning to `CC[C@H](C)[C@H](NC(=O)[C@@H]1CCCN1C(=O)[C@H](CO)NC(=O)CNC(=O)[C@H](CC(=O)O)NC(=O)[C@H](CC(C)C)NC(=O)[C@@H](NC(=O)[C@H](CCCCN)NC(=O)[C@H](Cc1ccccc1)NC(=O)CNC(=O)[C@H](CC(C)C)NC(=O)[C@@H](N)CO)C(C)C)C(=O)N[C@@H](CO)C(=O)N[C@@H](CC(C)C)C(=O)N[C@@H](CCCNC(=N)N)C(=O)O` [I8R (243–257)], the IC50 against HLA-DR1 came out at 17 nM.

For A28Ls (15–29) (peptide), the IC50 in experiment [1] stood at 212 nM. Further, in experiment [2], the t1/2in worked out at 213 h.

Regarding A48Rs (41–55) (peptide), the IC50 in experiment [1] was 44 nM. For the same molecule, in experiment [2], the t1/2DM amounted to 115 h and the t1/2in is 136 h.

Turning to D5R (315–329) (peptide), in experiment [2], the t1/2in is 276 h.

Turning to D6R (156–170) (peptide), the IC50 in experiment [1] was found to be 4 nM. For the same molecule, in experiment [2], the t1/2DM is 219 h and the t1/2in was determined as 997 h.

As for F1L(202–214) (peptide), in experiment [2], the t1/2DM was 117 h and the t1/2in amounted to 413 h.

For GRYLVLKAVKVSD [F17R(19–31)], the IC50 against HLA-DR1 came out at 37 nM.

Molecule HPDYAILAARIAVSN [I4L (71–85)] came in with an IC50 against HLA-DR1 of 62 nM.

In the case of I1L (8–22) (peptide), in experiment [1], the IC50 worked out at 15 nM. Also, the t1/2in in experiment [2] stood at 155 h.

Take I4L (71–85) (peptide): the t1/2in in experiment [2] amounted to 278 h.

Regarding L1R (191–205) (peptide), in experiment [1], the IC50 came out at 7360 nM.

For TTQSMNIMESIPANT [A48Rs (41–55)], the IC50 against HLA-DR1 came out at 44 nM.
